Results on 24 sequences are retold here after the DeepSol protein solubility set.

This data set can be described thus: soluble on expression in E. coli; label from the status in PepcDB or PDB records.
Take “YIKVPVLRLKPSEIHINLKLLKKTADYSSVSALQQTMLYLGRLLVQSGVNTLGVDAVAAFNAASIIDSYVLAPGSSLASSVTTFSAQNRGGGKYDRIPRG”: the “soluble on expression in E. coli” value is given as “not soluble”.

With “MAELPKTLEEAITQSREAVKSALADGVTRIQVDFLFPELKFMPVAEQFVPLFAEYESRVKVFFADAGAAALARRDWQNVPFKVEDIGTGRAASLQTKIQPEDEIFLFIAPTPVEVPQLEKMCEIIDTRPIVLLNPRLEDSGVVGIGYAARETRRRFISTIESCYYLRPVDDESALFRCYPGQWEVWLESNNEYEKIAELPKRPSGDEIDMILMKGQPAKPSEGTPAKKP”, the “soluble on expression in E. coli” value is “soluble”.

Take “MGSDKIHHHHHHMPHHQPCPPASSLSAGPRGGVIMLILKNVTAVQLHPAKVQEGVDIAIENDVIVAIGDALTQRYPDASFKEMHGRIVMPGIVCSHNHFYSGLSRGIMANIAPCPDFISTLKNLWWRLDRALDEESLYYSGLICSLEAIKSGCTSVIDHHASPAYIGGSLSTLRDAFLKVGLRAMTCFETTDRNNGIKELQEGVEENIRFARLIDEAKKATSEPYLVEAHIGAHAPFTVPDAGLEMLREAVKATGRGLHIHAAEDLYDVSYSHHWYGKDLLARLAQFDLIDSKTLVAHGLYLSKDDITLLNQRDAFLVHNARSNMNNHVGYNHHLSDIRNLALGTDGIGSDMFEEMKFAFFKHRDAGGPLWPDSFAKALTNGNELMSRNFGAKFGLLEAGYKADLTICDYNSPTPLLADNIAGHIAFGMGSGSVHSVMVNGVMVYEDRQFNFDCDSIYAQARKAAASMWRRMDALA”: the “soluble on expression in E. coli” value is on record as “not soluble”.

On to “SKLYDINNEIFEDLGAEKRELIQPNDVPQLLKDAIVSVEDRRFYKHIGVDPIRIIGSALSNVKNGGLQGGSTLTQQLIKLSYFSTKESDQTLKRKAQEAWMAVRLEREKSKEEILTYYINKVYMANGFYGMETAAENYYGKHLSELDLPQTALLAGMPQAPNSYDPYTKP”, for which the “soluble on expression in E. coli” value was “not soluble”.

Regarding “MSLDSKLIFFDIDGTIYDHDKNIPESTRKTVAELQRQGHHVFIASGRSPFLVKPILEELGIHSFISYNGQFVVFENQVIYKNPLPENAIRRLLKQADEGKHPVVFMAEDTMKATVADHPHVLEGIGSLKTDYPETDDLFYEGKEIFQLLLFCQDEEEKAYAAFPEFDLVRWHELSTDVLPHGGSKAEGIKKVIERLPFDIGDTYAFGDGLNDLQMIEYVGTGVAMGNAVPELKEIADFVTKPVDEDGIAYAVKELGLLKEGHHHHHH”, the “soluble on expression in E. coli” value is listed as “soluble”.

In the case of “SAQQRALPQSKETLLQSYNKRLKDDIKSIMDNFTEIIKTAKIEDETQVSRATQGEQDNYEMHVRAANIVRAGESLMKLVSDLKQFLILNDFPSVNEAIDQRNQQLRTLQEECDRKLITLRDEISIDLYELEEEYYSSRYK”, the “soluble on expression in E. coli” value was “soluble”.

Consider “MKTIYLYKAQIPEGKNKGDNAILITNQTVIDKLEKAAKEDGKSGTQVSTIASKSTTKENQENKIIGYTSTDNLREDNKNIFDIDDLNDEKYDRKIIVSATEEVLEQSNTLQSEEAVVLPAPAKYKASDSTKIAITQEPNLIGIHANEKENEETRKFVNW”, for which the “soluble on expression in E. coli” value was “soluble”.

For the sequence “MGSDKIHHHHHHLTDLKDALRTEALDAGFAKMGVCSPNAVPETAARLKAFVDAGFHGQMGWMAERMHWRGDASALWPEAKSVVMLAEPYTPDSDPLDALARKDRATISVYAQGRDYHDLVKKRLKRVGRWLLAQCPGEQIKVFVDTAPVMEKPLAQAAGLGWQGKHTNLLARDLGNWVFLGAIFTTVELPIDEPEAEHCGSCTACLDICPTNAFPAPFQLDARKCISYLTIEHKGPVDLALRAKLGNRIYGCDDCLAVCPWNKFAQTARDIRYAPRDDLRSPLLADLAALDDAGFRARFSGSPIKRIGRDRFVRNILYAIGNSGQAKLVDAARPLTDDPDVAVADAARWAMERLL”, the “soluble on expression in E. coli” value was “not soluble”.

With “AGHILLLEEEDEAATVVCEMLTAAGFKVIWLVDGSTALDQLDLLQPIVILMAWPPPDQSCLLLLQHLREHQADPHPPLVLFLGEPPVDPLLTAQASAILSKPLDPQLLLTTLQGLCPPN”, the “soluble on expression in E. coli” value is recorded as “soluble”.

In the case of “MLEFHNVPLKTILRRAIMSLPTNFNDILRFFEKDYDTAKEDNALSARGQFLQLYPLNHLKKMTLDDYVIGKGTASFCACVEVKTRTWANMQGATALKFGIYYGKSKSDPTVRYRFTQKFGDDDSTNKEVFANVKDALLDLIQSGKELDFRAIDENPLSQMFKAKILSLYFPEHFINICSKDHLKEIAMEMGIKEQQFISKYQHLLFKKKLEHKITRNWSNPKYMSFLYAQFIRKDLSSAPAVIVKKPQKRNHPEVNFEEITDNRDLIGKKSEEYALNWEKNRLIGLGYSKLAEEIDDRRNRPTYGYDFLSFNAPGDERYIEVKSIGRDGKEGAFRFFLSGNELTVSNLSNHSKNYYFYLVQYGKDGEPCNLYVKHAQDLYTNSEMSPCAYVVRFDLEEPALEHHHHHH”, the “soluble on expression in E. coli” value is “soluble”.

Consider “MASIDRFQVMQEPELKILEHWFENEDTRRRMDGMLLLDEWYARVNKDKHDTVIMAYDGQLPAGMVVIEFGEERTYIGLIVNPLYRLKGYGKQILQKLMTEPDFTSVREWVACIEEDNRISLACFQAAGFTLEDTEPDEDGFLTLILRNLEHHHHHH”, for which the “soluble on expression in E. coli” value is “not soluble”.

For the sequence “MRQVTIPLIQSKSMFCVIYRSSKRDQTYLYVEKKDDFSRVPEALMKGFGQPQLAMMLPLDGRKKLVNAELEKVKQALSEQGYYLQLPPPPEDLLKQHLSSVGQNTSPADR”, the “soluble on expression in E. coli” value is reported as “not soluble”.

As for “MGSDKIHHHHHHMSESWVAVTGATGFIGNALLQSLIKEGWKVRALTRRARVDDESTQWIEGDLHDRDALRKLVTGVSAVVHCAGQVRGSSLESFVRTNVEGTANLMQASLEQNPPPRFLLVSSLAARQPELSWYATSKHMAERLIDERSAGMACAIFRPTAVYGPGDKEMSPLFRITRRGILPMVGQPEMRFGLLHVADLVAAITCWLSTAVPVQGTYELDDGMPGGYDSQAVATIAQEVWKRPVRCVFFPAPLVSLIANINLWSARMLSYSPMLTPGKVRELRHPDWVCDIDPLTRALPGWRPCIHLRDALPQAV”, the “soluble on expression in E. coli” value was “not soluble”.

Take “MTHVCSVILIRRSFDIYHEQQKISLHNESILLLEKNLADDFAFCSPDTRRLDIDELTVCHYLQNIRQLPRNLGLHSKDRLLINQSPPMPLVTAIFDSFNESGVNSPILSNMLYLSCLSMFSHKKELIPLLFNSISTVSGKVERLISFDIAKRWYLRDIAERMYTSESLIKKKLQDENTCFSKILLASRMSMARRLLELRQIPLHTIAEKCGYSSTSYFINTFRQYYGVTPHQFAQHSPGTFS”: the “soluble on expression in E. coli” value is reported as “not soluble”.

In the case of “RSGKCVGDVIETVDSEEAMGDLKIVLAAIFARKFAGVNGEVTKEYLEGYKMLNIYITNACNLKCKHCFMLSGKKLENELTLEDWMKVLTSFKENGGEFVTFSGGEPLMFKNFPQIISHAHDLGLKSTVLSNGLLWSGKLIHDLALFIDEIQFSLDGVDEETNSMVRGSGHFEKVVDTIVKFANAGVKT”, the “soluble on expression in E. coli” value was “not soluble”.

With “MSFKVKNQSKHLYSLMTKFKRSQLILKHQSNNFASELWNEEDIIRSKQFIELIEDTLLHLKKDTVDFIYDIFIYGKKPCDISYSNSTYYKKLNKAANSFFDHFVWEAPIYKTKELKNDNSHS”, the “soluble on expression in E. coli” value is “soluble”.

As to “MGFHLRGNNDFAFKRLYINLPQNSQMRAQLRRLIDNGSDTVVVSDKQDADAFLDVLSENRVKTISSLTPQGVVREYRITYRFSFQLRDAHDNLLIPPSEITLFRDLSYNETQVLAKDYEEAALYRDMQGDIVNQLVRRLASVRLPSLEHHHHHH”, the “soluble on expression in E. coli” value was “soluble”.

In the case of “MGSDKIHHHHHHMSTLLQIKNLRTYFFTDEGVVKAVDGVSFEIEEGRTLGVVGESGCGKSVTARSIIKLLSTAGRIVSGEILYNMDGQMVDLVKFSKEEIRKVRGRHIAMIFQEPMAAFSPVYTIGDQITEGMIYHFGITKQEARERAVELLRRVGIPKPEKMIDSYPFEYSGGMRQRAMIAMALSCNPRLLIADEPTTALDVTIQAQVLDLLKDLQQEYKMAIMMITHNMGVVAEMADHVVVMYLGRVVESAPVEELFYNPKHPYTSLLLRSIPVVGKRVERLEVIEGDVPDPRNMPKGCRFHPRCPYMMKGICDEREPVEVEVGPEHRVSCFLYGGEKDGAS”, the “soluble on expression in E. coli” value is “not soluble”.

“MGSDKIHHHHHHMTENQTAHVRALILDATPLITQSYTHYQNYAQSFYTTPTVFQEIKDAQARKNLEIWQSLGTLKLVHPSENSIAKVSTFAKLTGDYSVLSANDLHILALTYELEIKLNNGDWRLRKKPGDALDASKADVGTDGKQKLTEDNKKEEDSESVPKKKNKRRGGKKQKAKREAREAREAENANLELESKAEEHVEEAGSKEQICNDENIKESSDLNEVFEDADDDGDWITPENLTEAIIKDSGEDTTGSLGVEASEEDRHVALNRPENQVALATGDFAVQNVALQMNLNLMNFMSGLKIKRIRNYMLRCHACFKIFPLPKDGKPKHFCASCGGQGTLLRCAVSVDSRTGNVTPHLKSNFQWNNRGNRYSVASPLSKNSQKRYGKKGHVHSKPQENVILREDQKEYEKVIKQEEWTRRHNEKILNNWIGGGSADNYISPFAITGLKQHNVRIGKGRYVNSSKRRS”: the “soluble on expression in E. coli” value was “not soluble”.

“MSLKIKHEHIRMAMNAWAHPDGEKVPAAEITRAYFELGMTFPELYDDSHPEALARNTQKIFRWVEKDTPDAVEKIQALLPAIEKSMPPLLVARMRSHSSAYFRELVETRERLVRDADDFVAVAIAGFNQMNRGGPAGNIVAVHEGHHHHHH”: the “soluble on expression in E. coli” value is recorded as “soluble”.

For the sequence “MPLELWIVFNLFGRKSPRSNIKPARGPGETVREADLRYLQEWVSTHAVVEAFVEPETIVNEMSVVLVDITGEFTRRRIGGPKGIDVISSTLGVPVYDVEETGYPQRMREKIERDRILRKREEQRERREKLQRERGESQ”, the “soluble on expression in E. coli” value is on record as “not soluble”.

For “MGSDKIHHHHHHESDLEQVTYSSENAIPSTLSSLNDNYILESKNASQEAFTLTWSHPDLGYQASVINSLEMDVKDKNFANKVILASSKTDVSHTITVSDLNSKIMALLKVYEMETAPIGIEFRISSSISAAADTLYSNIVSTTITPYEGEPEYPAITLRGSYNGWDFTKSQKVYSVNSDNIYAAMVYFDGKAADGWKFCGTEDWSTDNWGAPESMTPEQSPVTLVSGNGGDIKAYSKNSYYLEFNNTTGELKVSKPHNSWGIVGDHNSWGSGDTMMTLETETDENNKFQYYLKATLDMSAGNKWKIRPEEKWEDDIAPGAVEGEFEDAGDGNFKVSEAGNYTIKWYFNKVTPKIIVVKNK”, the “soluble on expression in E. coli” value was “not soluble”.

In the case of “MGSSHHHHHHSSGLVPRGSHMDAETVGRVKRFIQENVFVAANHNGSPLSIKEAPKELSFGARAELPRIHPVASKLLRLMQKKETNLCLSADVSLARELLQLADALGPSICMLKTHVDILNDFTLDVMKELITLAKCHEFLIFEDRKFADIGNTVKKQYEGGIFKIASWADLVNAHVVPGSGVVKGLQEVGLPLHRGCLLIAEMSSTGSLATGDYTRAAVRMAEEHSEFVVGFISGSRVSMKPEFLHLTPGVQLEAGGDNLGQQYNSPQEVIGKRGSDIIIVGRGIISAADRLEAAEMYRKAAWEAYLSRLGV”, the “soluble on expression in E. coli” value is reported as “soluble”.

Consider “MGHHHHHHSHLPAIRTLQSLAFHPNVTFIIGENGTGKSTLLEGIAIALGFNAEGGTKNFRFSTNDSHSSLHEYLRISKSFNTPSDGFFLRAESFYNVASYIDEIDADLEARGNPVIDSYGGISLHEQSHGESFFSLFMNRFSGQGLYILDEPEAALSPMRQLSMLIRMHELAEQGSQFVIATHSPILMAYPESTIYSLTQEG”, for which the “soluble on expression in E. coli” value is “not soluble”.
